Test results as given in PMC10853780.

How the values were obtained:
[1] = target: HA-tagged DAXX (Y124A, R371W) (UniProt Q9UER7); test: co-IP; as the DAXX-ATRX co-IP (anti-HA magnetic beads on SF188 cell extracts, ethidium bromide), proteins separated on a 16% acrylamide gel; immunoblot for DAXX, H3.3 and H4
[2] = target: HA-tagged DAXX (Y124A) (human) (UniProt Q9UER7); test: co-IP; anti-HA magnetic beads (Pierce HA-Tag Magnetic IP/Co-IP Kit) on SF188 cell extracts (500 μg protein), 4 h at 4°C, 50 μg/ml ethidium bromide throughout, final wash with 200 mM NaCl; immunoblot for DAXX and ATRX

| Substance | percent decrease of the interaction, corrected for the reduced stability of the mutant [1] | percent reduction of the interaction against DAXX WT [2] |
| --- | --- | --- |
| H3.3-H4 heterodimer | its interaction with H3.3 and H4 was decreased by > 80% |  |
| alpha-thalassemia/mental retardation syndrome X-linked (ATRX), P46100 1-2492 |  | > 95% |
